The results in this text go back to article PMC9482650, “Quantitative fragmentomics allow affinity mapping of interactomes” (Nature Communications, 2022).

What all share (experiment): holdup assay
What all share (design): key: below the threshold = too weak to quantify, mostly under pKd 3.1 to 4
Conditions in all cases: plain residues with an end cap or a label only (N-terminal biotin on a linker: ttds)

The target in assay [1] is T1, PDLIM3, Q53GG5.
T1 sequence (Q53GG5 1-94, limits assumed, looked up): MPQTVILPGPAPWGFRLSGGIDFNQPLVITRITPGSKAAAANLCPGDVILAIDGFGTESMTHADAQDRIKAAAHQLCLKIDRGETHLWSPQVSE

Assay [2] addresses T2, NHERF1_1, O14745.
T2 sequence (O14745 9-104, limits assumed, looked up): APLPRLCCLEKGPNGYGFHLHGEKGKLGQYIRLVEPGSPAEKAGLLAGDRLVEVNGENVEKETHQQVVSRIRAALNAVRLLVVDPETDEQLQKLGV

For assay [3], the target named is T3, PDZD8, Q8NEN9.
T3 sequence (Q8NEN9 361-459, limits assumed, looked up): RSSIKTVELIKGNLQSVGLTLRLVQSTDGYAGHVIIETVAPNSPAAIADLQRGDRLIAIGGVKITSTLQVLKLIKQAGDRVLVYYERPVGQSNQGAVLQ

For assay [4], the target named is PDZD9, Q8IXQ8.
Assay [5] addresses T4, MPP1, Q00013.
T4 sequence (Q00013 66-162, limits assumed, looked up): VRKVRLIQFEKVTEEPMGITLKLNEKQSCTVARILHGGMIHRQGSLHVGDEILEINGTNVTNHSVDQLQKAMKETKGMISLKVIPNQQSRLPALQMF

Assay [6] concerns the target PARD3B_3, Q8TEW8.
Assay [7] addresses PDLIM4, P50479.
Assay [8] concerns the target T5, USH1C_3, Q9Y6N9.
T5 sequence (Q9Y6N9 447-547, limits assumed, looked up): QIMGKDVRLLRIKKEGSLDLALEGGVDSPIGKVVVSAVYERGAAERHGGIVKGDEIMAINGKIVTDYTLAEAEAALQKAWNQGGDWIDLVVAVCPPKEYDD

Assay [9] addresses SCRIB_4, Q14160.
The target of assay [10] is T6, PDZD2_5, O15018.
T6 sequence (O15018 2617-2716, limits assumed, looked up): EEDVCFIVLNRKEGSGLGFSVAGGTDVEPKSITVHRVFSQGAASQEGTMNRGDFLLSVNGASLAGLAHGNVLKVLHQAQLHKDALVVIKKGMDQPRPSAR

Assay [11] concerns the target T7, MPDZ_7, O75970.
T7 sequence (O75970 1146-1253, limits assumed, looked up): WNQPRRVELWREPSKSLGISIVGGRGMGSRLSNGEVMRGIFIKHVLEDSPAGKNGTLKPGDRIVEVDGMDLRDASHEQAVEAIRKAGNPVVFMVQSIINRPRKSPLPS

Assay [12] addresses SDCBP_1, O00560.
For assay [13], the target named is T8, SHANK3, Q9BYB0.
T8 sequence (Q9BYB0 641-750, limits assumed, looked up): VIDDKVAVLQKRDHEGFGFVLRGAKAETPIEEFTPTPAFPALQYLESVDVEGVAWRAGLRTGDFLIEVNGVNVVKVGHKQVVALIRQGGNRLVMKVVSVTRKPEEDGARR

Assay [14] has as its target T9, GIPC1, O14908.
T9 sequence (O14908 128-223, limits assumed, looked up): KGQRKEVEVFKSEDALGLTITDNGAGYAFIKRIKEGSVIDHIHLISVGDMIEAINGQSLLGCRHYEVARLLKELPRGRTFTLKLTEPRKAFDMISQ

The target of assay [15] is AHNAK2, Q8IVF2.
Assay [16] addresses T10, SYNPO2L, Q9H987.
T10 sequence (Q9H987 1-98, limits assumed, looked up): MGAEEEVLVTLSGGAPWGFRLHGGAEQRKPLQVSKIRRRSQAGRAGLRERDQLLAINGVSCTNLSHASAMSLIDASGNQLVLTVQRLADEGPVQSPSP

Assay [17] addresses T11, SNTB2, Q13425.
T11 sequence (Q13425 110-208, limits assumed, looked up): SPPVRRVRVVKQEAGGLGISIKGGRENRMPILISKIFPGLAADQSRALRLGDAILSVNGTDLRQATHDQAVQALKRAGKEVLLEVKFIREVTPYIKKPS

Assay [18] has as its target T12, MPDZ_11, O75970.
T12 sequence (O75970 1720-1817, limits assumed, looked up): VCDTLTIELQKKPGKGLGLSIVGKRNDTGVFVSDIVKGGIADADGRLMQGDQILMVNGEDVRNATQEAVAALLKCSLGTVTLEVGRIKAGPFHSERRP

The target in assay [19] is T13, PDZD2_6, O15018.
T13 sequence (O15018 2745-2839, limits assumed, looked up): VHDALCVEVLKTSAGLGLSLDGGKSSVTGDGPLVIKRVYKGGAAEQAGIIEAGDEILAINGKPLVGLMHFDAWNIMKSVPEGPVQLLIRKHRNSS

Assay [20] deals with T14, INTU, Q9ULD6.
T14 sequence (Q9ULD6 180-273, limits assumed, looked up): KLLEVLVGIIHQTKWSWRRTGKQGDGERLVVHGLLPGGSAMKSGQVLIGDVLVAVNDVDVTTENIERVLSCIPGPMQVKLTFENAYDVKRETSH

The target in assay [21] is MAGI1_6, Q96QZ7.
Assay [22] addresses MAGI1_4, Q96QZ7.
Assay [23] has as its target MAGI3_6, Q5TCQ9.

As a reminder, the pKd is the Kd on a negative log10 scale, so that one unit is a factor of ten.

MAGI1_6, Q96QZ7, sequence (Q96QZ7 1146-1238): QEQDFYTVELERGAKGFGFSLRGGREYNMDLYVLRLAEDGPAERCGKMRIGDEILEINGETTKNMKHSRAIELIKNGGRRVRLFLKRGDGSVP
PARD3B_3, Q8TEW8, sequence (Q8TEW8 490-594): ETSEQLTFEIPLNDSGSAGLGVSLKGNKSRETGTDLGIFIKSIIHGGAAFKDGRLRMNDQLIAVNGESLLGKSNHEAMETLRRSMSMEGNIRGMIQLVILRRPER
PDLIM4, P50479, sequence (P50479 1-83): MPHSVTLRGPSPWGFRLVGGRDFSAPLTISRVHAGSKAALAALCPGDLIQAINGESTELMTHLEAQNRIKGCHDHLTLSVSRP
SDCBP_1, O00560, sequence (O00560 111-198): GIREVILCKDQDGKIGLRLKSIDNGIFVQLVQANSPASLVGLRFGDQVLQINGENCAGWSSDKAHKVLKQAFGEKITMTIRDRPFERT
AHNAK2, Q8IVF2, sequence (Q8IVF2 108-193): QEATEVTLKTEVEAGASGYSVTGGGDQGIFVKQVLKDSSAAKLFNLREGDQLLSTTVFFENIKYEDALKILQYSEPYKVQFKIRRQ
PDZD9, Q8IXQ8, sequence (Q8IXQ8 23-120): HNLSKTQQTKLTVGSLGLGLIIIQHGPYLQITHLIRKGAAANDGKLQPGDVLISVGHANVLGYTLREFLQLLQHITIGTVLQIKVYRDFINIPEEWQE
MAGI3_6, Q5TCQ9, sequence (Q5TCQ9 1014-1103): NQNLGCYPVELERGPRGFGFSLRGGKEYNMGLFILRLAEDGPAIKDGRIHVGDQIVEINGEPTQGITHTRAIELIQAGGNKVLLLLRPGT
SCRIB_4, Q14160, sequence (Q14160 1095-1204): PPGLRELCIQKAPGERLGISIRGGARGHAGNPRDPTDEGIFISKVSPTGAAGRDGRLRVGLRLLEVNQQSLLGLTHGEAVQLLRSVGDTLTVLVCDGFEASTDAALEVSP
MAGI1_4, Q96QZ7, sequence (Q96QZ7 other isoform, or with tags, fused parts or gaps): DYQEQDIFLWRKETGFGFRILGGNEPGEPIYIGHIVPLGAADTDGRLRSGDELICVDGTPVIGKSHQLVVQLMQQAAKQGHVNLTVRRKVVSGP

Turning to QRQARSETLV [HPV59-E6, Q81964], the negative logarithm of the Kd (pKd) result was “below the threshold” in [1]; “below the threshold” in assay [2]; “below the threshold” in assay [3]; “below the threshold” in assay [4]; 6.03 in assay [5]; “below the threshold” in [6]. For the same molecule, the pKd result is “below the threshold” in [7]; “below the threshold” in assay [8]; “below the threshold” in assay [9]; “below the threshold” in assay [10]; 4.28 in [11]; “below the threshold” in [12]. For the same molecule, the negative logarithm of the Kd (pKd) in assay [13] was 4.22; in [14], “below the threshold”; in assay [15], “below the threshold”; in assay [16] it was “below the threshold”; in assay [17], “below the threshold”; in [18], “below the threshold”. In addition, the pKd result in assay [19] is “below the threshold”; in assay [20] it was “below the threshold”; in [21], “below the threshold”; in assay [22], 4.65; in [23], “below the threshold”.
With RLPKIKETTV [FRMPD4, Q14CM0], the pKd is 4.24 in assay [1]; “below the threshold” in assay [2]; “below the threshold” in [3]; “below the threshold” in assay [4]; 5.3 in assay [5]; “below the threshold” in [6]. In addition, the negative-log Kd (pKd) result was “below the threshold” in [7]; “below the threshold” in [8]; 4.85 in [9]; “below the threshold” in assay [10]; “below the threshold” in [11]; “below the threshold” in assay [12]. Also, the pKd result in assay [13] was “below the threshold”; in assay [14] it was 4.44; in assay [15], “below the threshold”; in [16] it was “below the threshold”; in assay [17], 5.36; in assay [18], “below the threshold”. The pKd result is “below the threshold” in assay [19]; “below the threshold” in assay [20]; 4.57 in assay [21]; “below the threshold” in assay [22]; “below the threshold” in [23].
Consider SGSRPSATVV [HPV73-E6, Q82005], for which the pKd entry is “below the threshold” in assay [1]; “below the threshold” in assay [2]; 4.04 in [3]; “below the threshold” in [4]; 4.14 in assay [5]; “below the threshold” in assay [6]. For the same molecule, the pKd entry in assay [7], in [8], in [9], in assay [10], in assay [11] and in assay [12] was “below the threshold” throughout. Further, the pKd entry in assay [13] was “below the threshold”; in assay [14], 4.64; in [15], “below the threshold”; in assay [16], “below the threshold”; in assay [17], 4.13; in assay [18], “below the threshold”. The pKd entry is “below the threshold” in [19]; 4.58 in assay [20]; “below the threshold” in assay [21]; “below the threshold” in [22]; “below the threshold” in [23].
For RHTTSTETAV [HPV30-E6, P36809], the negative logarithm of the Kd (pKd) result is “below the threshold” in assay [1]; “below the threshold” in assay [2]; “below the threshold” in assay [3]; “below the threshold” in assay [4]; 5.17 in assay [5]; “below the threshold” in assay [6]. In addition, the pKd entry in assay [7] was “below the threshold”; in assay [8], “below the threshold”; in [9] it was 4.59; in assay [10], “below the threshold”; in assay [11], “below the threshold”; in [12], “below the threshold”. The negative-log Kd (pKd) entry is “below the threshold” in assay [13]; 4.7 in [14]; “below the threshold” in assay [15]; “below the threshold” in assay [16]; 4.68 in assay [17]; “below the threshold” in assay [18]. Also, the negative-log Kd (pKd) entry in assay [19] is “below the threshold”; in assay [20], “below the threshold”; in assay [21], 4.73; in assay [22], “below the threshold”; in assay [23], “below the threshold”.
